Experimental data reported in US20190338029A1 (Y BIOLOGICS, published 2019).
Where a chain is given by its changes, count along the chain named. Values belong to the binder of their own block, whether it stands above or below them.

Tests used:
human PD-L1 [1] = biological target: T1, human PD-L1 (human, UniProt Q9NZQ7 19-238, limits assumed); experiment: label-free kinetics on OCTET QKe, PD-L1 on AHC biosensor; PD-L1 fixed on AHC biosensor (OCTET QKe)
T1 construct: also called hPD-L1
Protocol: (§1) Measurement of label-free kinetics (protein-protein interaction) using OCTET® QKe system (ForteBio, USA) was performed by using an anti-human IgG capture (AHC) biosensor (ForteBio, USA) for human PD-L1 and amine reactive (ARG2) biosensor for CD3εδ chains. […] Sensorgrams were collected over time.

hCD3εε chains = biological target: T2, hCD3εε chains; experiment: ELISA on hCD3εε chains
T2 epsilon: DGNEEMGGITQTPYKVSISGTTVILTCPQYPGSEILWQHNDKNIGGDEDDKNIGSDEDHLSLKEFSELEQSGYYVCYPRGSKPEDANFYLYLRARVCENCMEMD
Protocol: (§2) Next day, plate was washed once with 200 μl of PBST, and then a surface blocking was performed at room temperature with 5% skim milk for 1-2 hours. […] Each well was then washed three times with 200 μl of PB ST to remove unbound samples. Horseradish peroxidase (HRP)-conjugated anti-human IgG (Fab specific) antibodies (Sigma, USA) were added to wells at a ratio of 1:1000 for a reaction at room temperature. After three times of washing with 200 ul of PBST, a color reaction of HRP was induced using TMB solution (GEhealthcare, USA) in a volume of 10 μl/well. The reaction was terminated by using a stop solution (2.5 M H2504, 100 μl/well). A spectrophotometer was used to measure the absorbance at a wavelength of A450 to calculate the binding affinity.

CD3 (Sino Biological) = experiment: ELISA on CD3, curve fit
Protocol: as §2

[2] = biological target: T3, PD-L1 (PD-1/PD-L1 Blockade Bioassay kit, Promega) (UniProt Q9NZQ7 19-290, limits assumed); experiment: cell-based or functional assay
T3 sequence (Q9NZQ7 19-290 limits assumed): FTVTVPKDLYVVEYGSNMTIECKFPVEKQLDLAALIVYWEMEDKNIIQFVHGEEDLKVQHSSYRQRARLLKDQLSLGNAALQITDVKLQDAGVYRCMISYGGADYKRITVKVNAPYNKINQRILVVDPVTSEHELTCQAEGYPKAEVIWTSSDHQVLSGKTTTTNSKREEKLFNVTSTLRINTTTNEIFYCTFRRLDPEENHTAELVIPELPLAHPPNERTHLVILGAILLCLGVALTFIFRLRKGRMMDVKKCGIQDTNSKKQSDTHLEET

hCD3εγ chains [3] = biological target: T4, hCD3εγ chains; experiment: ELISA on hCD3εγ chains, curve fit of a flat curve
T4 construct: copies: 1 + 1
T4 epsilon: T2 epsilon
T4 gamma: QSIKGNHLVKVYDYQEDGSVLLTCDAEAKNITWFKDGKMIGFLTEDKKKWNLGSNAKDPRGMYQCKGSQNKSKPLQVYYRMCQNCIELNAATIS
Protocol: as §2

[4] = biological target: T3, PD-L1 (PD-1/PD-L1 Blockade Bioassay …); experiment: cell-based or functional assay; remark: listed apart in the source
[5] = biological target: T5, CD3 on Jurkat luciferase reporter cells (Homo sapiens (Human), UniProt P07766 23-207; P09693 23-182; P04234 22-171); experiment: flow cytometry on Jurkat_NFAT_Luc2P cells, FITC-A; histogram shifted to about 10^3
T5 construct: also called CD3 positive Jurkat cell line with NFAT luciferase reporter

hCD3εγ chains [6] = biological target: T4, hCD3εγ chains; experiment: ELISA on hCD3εγ chains, curve fit
Protocol: as §2

human PD-L1 [7] = biological target: T1, human PD-L1; experiment: label-free kinetics on OCTET QKe (called SPR in the text), PD-L1 on AHC biosensor
Protocol: as §1

T1 sequence (Q9NZQ7 19-238 limits assumed): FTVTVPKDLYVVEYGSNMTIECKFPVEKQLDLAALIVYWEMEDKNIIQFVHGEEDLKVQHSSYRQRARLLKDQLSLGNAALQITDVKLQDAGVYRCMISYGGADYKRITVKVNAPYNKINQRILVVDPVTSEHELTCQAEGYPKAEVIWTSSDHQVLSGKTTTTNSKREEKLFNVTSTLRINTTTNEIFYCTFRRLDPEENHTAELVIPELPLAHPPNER

Kd (human PD-L1 [1]): < 0.0109 nM | binding result (hCD3εε chains): no binding (tested: 100 nM) | Bmax (CD3 (Sino Biological)): 3.97 O.D. 450 nm | Kd (CD3 (Sino Biological)): 17.6 nM | EC50 (read off the curve); luciferase RLU in the PD-1/PD-L1 Blockade Bioassay, blocked partner PD-1 [2]: ~0.02 µg/mL | Kd (fit value of a flat curve) (hCD3εγ chains [3]): 0.035 nM | EC50; luciferase RLU in the PD-1/PD-L1 Blockade Bioassay, blocked partner PD-1 [4]: 0.00429 nM
B1: ACE-05 (bispecific antibody)
heavy 1: not shown
heavy 2: not shown
light: QLVLTQPPSVSGAPGQRVTISCTGSSSNIGAGYDVHWYQQLPGAAPKLLIYGDINRPSGVPDRFSGSKSGISASLAITGLQAEDEADYYCQSYDSSLSGGVFGGGTKLTVLRTVAAPSVFIFPPSDEQLKSGTASVVCLLNNFYPREAKVQWKVDNALQSGNSQESVTEQDSKDSTYSLSSTLTLSKADYEKHKVYACEVTHQGLSSPVTKSFNRGEC
notes: Contains a GGGGS linker between the hinge and the Fv; also called ALiCE molecule ACE-05

Bmax (CD3 (Sino Biological)): 4.04 O.D. 450 nm | Kd (CD3 (Sino Biological)): 21.1 nM
B2: ACE-09 (bispecific antibody)
heavy 1: not shown
heavy 2: not shown
light: B1 light with T113S

EC50 (read off the curve); luciferase RLU in the PD-1/PD-L1 Blockade Bioassay, blocked partner PD-1 [2]: ~0.08 µg/mL
B3: ACE-05-VL2 (other)
heavy: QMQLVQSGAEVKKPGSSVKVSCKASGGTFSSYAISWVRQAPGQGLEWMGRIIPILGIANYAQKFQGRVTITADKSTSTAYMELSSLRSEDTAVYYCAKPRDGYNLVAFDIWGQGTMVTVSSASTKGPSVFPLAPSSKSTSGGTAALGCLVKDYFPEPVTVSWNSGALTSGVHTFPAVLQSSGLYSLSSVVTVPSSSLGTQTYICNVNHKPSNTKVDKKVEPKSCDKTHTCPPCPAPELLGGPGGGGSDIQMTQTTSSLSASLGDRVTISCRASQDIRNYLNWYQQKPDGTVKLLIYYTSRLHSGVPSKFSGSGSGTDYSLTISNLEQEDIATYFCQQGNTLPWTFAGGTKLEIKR
light: B1 light

Fold [5]: 35 fold over hIgG | Bmax (CD3 (Sino Biological)): 3.67 O.D. 450 nm | Kd (CD3 (Sino Biological)): 2.69 nM | Kd (hCD3εγ chains [6]): 33.3 nM
B4: UCHT1 (an anti-CD3 antibody from BioLegend, USA) (antibody, V domains shown)
VH: EVQLQQSGPELVKPGPSMKISCKASGYSFTGYTMNWVKQSHGKNLEWMGLINPYKGVSTYNQKFKDKATLTVDKSSSTAYMELLSLTSEDSAVYYCARSGYYGDSDWYFDVWGQGTTLTVFS
VL: DIQMTQTTSSLSASLGDRVTISCRASQDIRNYLNWYQQKPDGTVKLLIYYTSRLHSGVPSKFSGSGSGTDYSLTISNLEQEDIATYFCQQGNTLPWTFAGGTKLEIKR
notes: Bought antibody; also called parental anti-CD3 antibody

EC50 (read off the curve); luciferase RLU in the PD-1/PD-L1 Blockade Bioassay, blocked partner PD-1 [2]: ~0.05 µg/mL | EC50; luciferase RLU in the PD-1/PD-L1 Blockade Bioassay, blocked partner PD-1 [4]: 0.0112 nM | Kd (human PD-L1 [7]): 0.0132 nM
B5: YBL-007 (antibody, V domains shown)
VH: QMQLVQSGAEVKKPGSSVKVSCKASGGTFSSYAISWVRQAPGQGLEWMGRIIPILGIANYAQKFQGRVTITADKSTSTAYMELSSLRSEDTAVYYCAKPRDGYNLVAFDIWGQGTMVTVSS
VL: QLVLTQPPSVSGAPGQRVTISCTGSSSNIGAGYDVHWYQQLPGAAPKLLIYGDINRPSGVPDRFSGSKSGISASLAITGLQAEDEADYYCQSYDSSLSGGVFGGGTKLTVLR
notes: also called parental anti-PD-L1 antibody; anti-hPD-L1 antibody
